The record followed here is patent US20240117043A1 (SHANGHAI JUNSHI BIOSCIENCES, published 2024).

Test [1] concerns the target T1, human TIGIT on the surface of Jurkat-hTIGIT cells (human, UniProt Q495A1 22-244).
T1 construct: whole, on cells; also called human TIGIT on the surface of Jurkat cells
T1 sequence (looked up): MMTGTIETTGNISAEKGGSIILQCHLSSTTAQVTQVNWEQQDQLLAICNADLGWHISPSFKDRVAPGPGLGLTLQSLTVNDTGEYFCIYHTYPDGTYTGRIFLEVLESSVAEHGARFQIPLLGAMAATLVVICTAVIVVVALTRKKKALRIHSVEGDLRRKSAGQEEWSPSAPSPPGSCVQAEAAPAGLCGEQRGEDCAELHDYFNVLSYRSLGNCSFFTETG
As to the kind of experiment: flow cytometry, blocking of 1 ug/mL PVR-mFc binding to Jurkat-hTIGIT cells. Here is the method:
Jurkat-hTIGIT cells (human T lymphocytes, human TIGIT positive) were incubated with different concentrations of the bispecific antibodies JS-1, JS-3, JS-5 and JS-9 and 1 μg/mL human PVR-mFc protein at 4° C. for 30 min, then washed and incubated with a fluorescence-labeled anti-mouse IgG secondary antibody (1:200) in a dark place at 4° C. for 30 min. Finally, the cells were collected using a flow cytometer (BD Canto II), and the fluorescent antibodies bound to the cell surface were detected. Raw data were analyzed using FlowJo to obtain MFI values, antibody dose-dependent binding curves (FIG. 4) were fitted using GraphPad, and IC50 was calculated. The positive controls were hu20 (a recombinant humanized anti-TIGIT monoclonal antibody) and JS-Ref (Hengrui) (an anti-TIGIT/CD112R bispecific antibody of Hengrui, expressed and purified according to the sequence of the patent WO2021180205), and the negative control was an anti-KLH-hIgG4 antibody.
A general note: Flow cytometry measures light scatter and fluorescence of single cells or particles in a stream.

In test [2] the target is T2, recombinant human TIGIT (His Tag) (human, UniProt Q495A1 22-141).
T2 construct: Coated antigen of the ELISA; not shown: His tag
T2 sequence (looked up): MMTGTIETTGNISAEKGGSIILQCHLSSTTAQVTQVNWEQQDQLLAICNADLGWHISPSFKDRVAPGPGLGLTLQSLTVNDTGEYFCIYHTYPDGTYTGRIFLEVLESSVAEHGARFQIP
As to the kind of experiment: ELISA, plate coated with recombinant human TIGIT (His Tag), detection with HRP anti-human IgG4 Fc; unit taken from the concentration axis [2a]. On the procedure: 2. Procedures [0241] a. A 96-well plate was coated with 1.5 μg/mL recombinant human TIGIT (His Tag) (Suzhou Junmeng) as the antigen at 100 μL/well and incubated at 37° C. for 1.5 h. [0242] b. The plate was washed 4 times with 300 μL/well 1×PBST, and 2% BSA was added at 200 μL/well. The plate was blocked at 37° C. for 1.5 h. [0243] c. The plate was washed 4 times with 300 μL/well 1×PBST, and serial dilutions of the bispecific antibodies JS-1,3,5,9 and a negative control: antibody (anti-KLH hIgG4) (initial concentration 1.0 μg/mL, 3-fold serially diluted to 12 concentration points, 100 μL/well) were added. The plate was incubated at 37° C. for 1 h. [0244] d. The plate was washed 4 times with 300 μL/well 1×PBST. [0245] e. 5000-fold diluted horseradish peroxidase (HRP)-conjugated mouse anti-human IgG4 Fc antibody (Southern Biotech, 9200-05) was added at 100 μL/well, and the plate was incubated at 37° C. for 1 h. […] The plate was washed 4 times with 300 μL/well 1×PBST. [0247] g. 0.1 mg/mL TMB was added at 100 μL/well, and after the plate was incubated at 37° C. for 15 min, a 2 M solution of hydrochloric acid was added at 100 μL/well to stop the reactions. [0248] h. The absorbance was measured at 450 nm/620 nm on a microplate reader, and data were analyzed using Graphpad Prism7.
On the technique in general: An ELISA detects its analyte on a solid surface through an enzyme-linked reagent.

B1: bispecific antibody JS-1 (IgG4) (bispecific antibody)
heavy: QVQLVQSGAEVKKPGASVKVSCKTSGYAFTEYTMHWVRQAPGKGLEWMGGINPNTGGTTYNQKFQGRVTLTVDKSSSTAYMELSSLRSEDTVVYYCAKLLRLMYYFDYWGQGTLVTVSSASTKGPSVFPLAPCSRSTSESTAALGCLVKDYFPEPVTVSWNSGALTSGVHTFPAVLQSSGLYSLSSVVTVPSSSLGTKTYTCNVDHKPSNTKVDKRVESKYGPPCPPCPAPEFLGGPSVFLFPPKPKDTLMISRTPEVTCVVVDVSQEDPEVQFNWYVDGVEVHNAKTKPREEQFNSTYRVVSVLTVLHQDWLNGKEYKCKVSNKGLPSSIEKTISKAKGQPREPQVYTLPPCQEEMTKNQVSLWCLVKGFYPSDIAVEWESNGQPENNYKTTPPVLDSDGSFFLYSRLTVDKSRWQEGNVFSCSVMHEALHNHYTQKSLSLSLGK
light: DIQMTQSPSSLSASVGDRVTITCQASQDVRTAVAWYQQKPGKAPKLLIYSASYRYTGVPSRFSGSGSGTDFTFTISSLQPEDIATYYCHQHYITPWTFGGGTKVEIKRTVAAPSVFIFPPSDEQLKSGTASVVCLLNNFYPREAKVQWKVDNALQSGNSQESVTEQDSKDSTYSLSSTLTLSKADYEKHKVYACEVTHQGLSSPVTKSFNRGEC
chain: DIVMTQSPDSLAVSLGERATINCKASQSVSNDVAWYQQKPGQPPKLLIYYVSHRFTGVPDRFSGSGSGTDFTLTISSLQAEDVAVYFCHQAYRSPWTFGCGTKLEIKGGGGSGGGGSGGGGSGGGGSEVQLVESGGGLVKPGGSLRLSCAASGFTFSSYHMSWVRQAPGKCLELVSAINSNGINTYYLDTVKGRFTISRDNAKNSLYLQMNSLRAEDTAVYYCARHEDYYGFAMDYWGQGTLVTVSSGGGGSGGGGSESKYGPPCPPCPAPEFLGGPSVFLFPPKPKDTLMISRTPEVTCVVVDVSQEDPEVQFNWYVDGVEVHNAKTKPREEQFNSTYRVVSVLTVLHQDWLNGKEYKCKVSNKGLPSSIEKTISKAKGQPREPQVCTLPPSQEEMTKNQVSLSCAVKGFYPSDIAVEWESNGQPENNYKTTPPVLDSDGSFFLVSRLTVDKSRWQEGNVFSCSVMHEALHNRFTQKSLSLSLGK
notes: Three-chain knob-into-hole format: anti-TIGIT Fab arm and anti-CD112R scFv arm, IgG4 Fc
Broadly, the IC50 is the concentration that gives 50% inhibition. The EC50 is the midpoint of the concentration-response curve. B1 registered a half-maximal inhibitory concentration (IC50) in test [1] of 5.42 nM. Also, the half-maximal effective concentration (EC50) in test [2] was found to be 0.0858 µg/mL.

B2: bispecific antibody JS-3 (IgG4) (bispecific antibody)
chain 1: not shown
chain 2: DIVMTQSPDSLAVSLGERATINCKASQSVSNDVAWYQQKPGQPPKLLIYYVSHRFTGVPDRFSGSGSGTDFTLTISSLQAEDVAVYFCHQAYRSPWTFGQGTKLEIKRTVAAPSVFIFPPSDEQLKSGTASVVCLLNNFYPREAKVQWKVDNALQSGNSQESVTEQDSKDSTYSLSSTLTLSKADYEKHKVYACEVTHQGLSSPVTKSFNRGECSGGGSGGGSEGGGSEGGGSEGGGSEGGGSGGGSGEVQLVESGGGLVKPGGSLRLSCAASGFTFSSYHMSWVRQAPGKGLELVSAINSNGINTYYLDTVKGRFTISRDNAKNSLYLQMNSLRAEDTAVYYCARHEDYYGFAMDYWGQGTLVTVSSASTKGPSVFPLAPCSRSTSESTAALGCLVKDYFPEPVTVSWNSGALTSGVHTFPAVLQSSGLYSLSSVVTVPSSSLGTKTYTCNVDHKPSNTKVDKRVESKYGPPCPPCPAPEFLGGPSVFLFPPKPKDTLMISRTPEVTCVVVDVSQEDPEVQFNWYVDGVEVHNAKTKPREEQFNSTYRVVSVLTVLHQDWLNGKEYKCKVSNKGLPSSIEKTISKAKGQPREPQVCTLPPSQEEMTKNQVSLSCAVKGFYPSDIAVEWESNGQPENNYKTTPPVLDSDGSFFLVSRLTVDKSRWQEGNVFSCSVMHEALHNRFTQKSLSLSLGK
notes: Two-chain scFab/scFab knob-into-hole format, IgG4 Fc
Consider B2, for which the IC50 in test [1] came to 6.78 nM. In test [2], the 50% effective concentration (EC50) turned out to be 0.106 µg/mL.
